Columns and labels:
Trastuzumab [1] = experiment: SPR; same sensorgrams of Z peptide on immobilised Tz, fitted with the affinity model (Req against Z peptide concentration)
Trastuzumab [2] = experiment: SPR; Biacore X100; Tz amine-coupled to a CM3 chip at 1220 RU; authentic vault, vault-Z or peptide Z injected 3 min at 30 uL/min, 25 °C, in 10 mM HEPES pH 7.4, 0.15 M NaCl, 3 mM EDTA, 0.05% Surfactant P20; Langmuir 1:1 kinetic fit
[3] = molecular target: vault-Z nanoparticle (assembly of major vault protein carrying a C-terminal Z peptide) (human | staphylococcal (protein A-derived)); experiment: co-sedimentation; 8 nM vault-Z (624 nM MVP-Z) or authentic vault incubated 1 h with 40 to 320 nM Tz in 12 mM sodium phosphate pH 7.2, 0.14 M NaCl, 2.7 mM KCl; pelleted at 100,000 x g, 2 h, 4 °C; pellets quantified by SDS-PAGE densitometry and LC/MS; apparent KD from a quadratic binding equation

Substance | Kd (Trastuzumab [1]) [µM] | Kd (Trastuzumab [2]) [µM] | koff (Trastuzumab [2]) [s⁻¹] | kon (Trastuzumab [2]) [M⁻¹ s⁻¹] | Tz bound per vault-Z at 160 nM Tz (Tz per vault-Z) [3] | stoichiometry N (Tz per vault-Z) [3]
Z peptide in isolation | 0.056 | 0.0383 | 0.0171 | 446000 | – | –
vault-Z nanoparticle (assembly of major vault protein carrying a C-terminal Z peptide) (complex) | – | 0.00253 | 0.000259 | 105000 | – | –
Trastuzumab (antibody) | – | – | – | – | 14 | > 10

Reference: PMC11203631
